Assay results as given in US5981167A, “Surface plasmon resonance based enzymatic assay” (priority 1998, dated 1999).

Key:
[1] = target: maturation site peptide […] (CMV)
[2] = system: HCV protease His-NS3(183)Δ4AHT; conditions: concentrated enzyme
[3] = system: in vitro-translated 5A/5B substrate; assay: Trans-cleavage assay in the presence of 4A peptide; assay type: biochemical, HCV; conditions: refolded protein
Source text: Precipitation of protein occurred at the last step of dialysis, and the soluble protein was clarified by centrifugation. The overall protein recovery was about 0.10%.

CMV protease, refolded wild type (from UniProt P16753) (enzyme)
Km [1]: 1020 µM

Biotin-DTEDVVAC SMSYTWTGK-pY
time to 50% substrate cleavage [2]: ≤ 1 h

B1: HisHIV183: HCV NS3 protease without solubilizing motif, refolded from E. coli inclusion body pellet (protein)
chain: APITAYAQQTRGLLGCIITSLTGRDKNQVEGEVQIVSTATQTFLATCINGVCWTVYHGAGTRTIASPKGPVIQTYTNVDQDLVGWPAPQGSRSLTPCTCGSSDLYLVTRHADVIPVRRRGDSRGSLLSPRPISYLKGSSGGPLLCPTGHAVGLFRAAVCTRGVAKAVDFIPVENLETTMRSPV
activity in trans-cleavage assay [3]: active
